Data on 9 molecules can be found in patent US20190031754A1 (Scripps Research, published 2019).

Like-named read-outs stand apart in the source and are kept apart here.

For assay [1], the target named is T1, anti-human Fc (Jackson ImmunoResearch, 109-006-008).
T1 construct: Coated on a control plate to capture the chimeric IgG1 antibodies through their human Fc; also called IgG
Description: ELISA, IgG titrated on coated anti-human Fc; fit printed as IC50.

Assay [2] has as its target T1, anti-human Fc (Jackson ImmunoResearch, …). Described as above. This is another data set of the same source.
The target in assay [3] is T2, recombinant human twin strep-tagged ROR2 extracellular domain (human, UniProt Q01974 34-403).
T2 construct: extracellular domain; Made in HEK293T, Streptactin purified; also called Human ROR2-TwinStrep; human ROR2
Description: ELISA, IgG titrated on coated twin-strep human ROR2 ECD; fit printed as IC50.

The target in assay [4] is T2, recombinant human twin strep-tagged …. The assay is described as above. This is another data set of the same source.
The target in assay [5] is T3, recombinant cynomolgus twin strep-tagged ROR2 extracellular domain (cynomolgus monkey, UniProt A0A7N9D5U8 34-403).
T3 construct: extracellular domain; Made in HEK293T, Streptactin purified; also called cynomolgus ROR2; cynomolgus ROR2-TwinStrep
Description: ELISA, IgG titrated on coated twin-strep cynomolgus ROR2 ECD; fit printed as IC50.

The target in assay [6] is T2, recombinant human twin strep-tagged …. Description: SPR, Biacore T200, IgG captured by anti-human Fcγ, ROR2-TwinStrep as analyte, 1:1 Langmuir. A general note: In SPR one partner is held on a chip, and binding of the other changes the refractive index at the surface.
The target in assay [7] is T3, recombinant cynomolgus twin …. Described as above.
Assay [8] deals with T4, recombinant murine twin strep-tagged ROR2 extracellular domain (mouse, UniProt Q9Z138 34-403).
T4 construct: extracellular domain; Made in HEK293T, Streptactin purified; also called mouse ROR2; murine ROR2
Description: ELISA on coated twin-strep mouse ROR2 ECD (FIG. 14B); patent's own reading of the ELISA curves on coated mouse ROR2 (FIG. 14, panel B). Background: In an ELISA, binding on a coated surface is turned into a signal by an enzyme label.

The next assay concerns the target T5, hFc-hROR1 (human, UniProt Q01973 30-403, limits assumed).
T5 construct: also called ROR1 (ELISA control); not shown: human Fc (hFc) of pCEP4-hFc-hROR1 (Yang et al., 2011)
Description: ELISA, coated antigen 100 ng/well, anti-His HRP, absorbance 405 nm.

The next assay addresses T6, BSA (bovine, UniProt P02769).
T6 construct: also called bovine serum albumin
The description is as above.

Assay [9] has as its target T7, full-length human ROR2 on cells (human, UniProt Q01974 34-943).
T7 construct: whole, on cells; the cells are named under assay; In the Western blot it is denatured; also called hROR2; cell surface human ROR2
Description: flow cytometry, 63-12 cells expressing hROR2, Fab 1 µg/100 µL, anti-His Alexa Fluor 488.

The target in assay [10] is T7, full-length human ROR2 on cells. Description: flow cytometry, T47D cells (endogenous hROR2), IgG 100 ng/100 µL, anti-human Fc APC.
Another assay deals with T8, Ig.
T8 construct: transmembrane segment; also called HA-Ig
Description: flow cytometry, HEK 293F cells displaying the construct, IgG1 1 µg/mL, APC (binding) against PE (expression); on Vec cells Q2 6.53 and 73.5 in the PE- APC+ quadrant.

Assay [11] concerns the target T9, hROR2-T245 extracellular domain displayed on HEK 293F cells (human, UniProt Q01974 55-394; P09619 513-561).
T9 construct: range 55-394;range 513-561; also called complete ECD
The assay is described as above.

A further assay has as its target T10, Ig+Fr (human).
T10 construct: two-domain fragment;transmembrane segment; also called HA-Ig+Fr
Described as above.

The target of assay [12] is T4, recombinant murine twin strep-tagged …. Description: ELISA, IgG titrated on coated twin-strep mouse ROR2 ECD; fit printed as IC50.

A word on the IC50: it is the concentration at which inhibition is half-maximal. One may read the Kd as the free concentration of one partner at which half of the binding sites on the other are occupied at equilibrium, for simple one-to-one binding. What is called koff is a measure of how fast the partners let go of each other. One may read the kon as the second-order rate constant of association.

T4 sequence (Q9Z138 other isoform, or with tags, fused parts or gaps): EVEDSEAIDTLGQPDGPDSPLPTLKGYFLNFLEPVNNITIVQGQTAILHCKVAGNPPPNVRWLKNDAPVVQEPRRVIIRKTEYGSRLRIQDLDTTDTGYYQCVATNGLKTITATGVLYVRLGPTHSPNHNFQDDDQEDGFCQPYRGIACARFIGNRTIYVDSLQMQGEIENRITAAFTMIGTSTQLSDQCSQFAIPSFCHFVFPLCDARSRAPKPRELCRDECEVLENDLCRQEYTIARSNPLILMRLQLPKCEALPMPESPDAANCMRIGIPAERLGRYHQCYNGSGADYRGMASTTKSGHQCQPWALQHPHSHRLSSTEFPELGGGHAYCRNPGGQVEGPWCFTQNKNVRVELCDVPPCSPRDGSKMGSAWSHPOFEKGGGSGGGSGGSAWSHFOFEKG
T6 sequence (P02769 25-607 limits assumed): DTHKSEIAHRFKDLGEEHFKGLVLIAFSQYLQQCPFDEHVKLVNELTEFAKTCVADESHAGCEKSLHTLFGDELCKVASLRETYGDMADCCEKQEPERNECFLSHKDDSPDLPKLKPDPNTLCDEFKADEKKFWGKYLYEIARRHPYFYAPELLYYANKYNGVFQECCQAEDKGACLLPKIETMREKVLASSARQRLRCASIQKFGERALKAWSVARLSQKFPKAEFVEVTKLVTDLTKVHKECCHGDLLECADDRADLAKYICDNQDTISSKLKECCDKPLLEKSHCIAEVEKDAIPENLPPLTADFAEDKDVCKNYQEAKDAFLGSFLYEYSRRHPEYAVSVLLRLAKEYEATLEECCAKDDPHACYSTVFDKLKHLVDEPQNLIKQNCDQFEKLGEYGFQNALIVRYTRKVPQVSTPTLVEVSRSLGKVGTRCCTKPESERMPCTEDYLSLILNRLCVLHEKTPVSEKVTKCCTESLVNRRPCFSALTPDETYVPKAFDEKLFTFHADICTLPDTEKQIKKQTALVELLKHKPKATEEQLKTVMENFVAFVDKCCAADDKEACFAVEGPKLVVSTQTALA
T5 sequence (Q01973 30-403 limits assumed): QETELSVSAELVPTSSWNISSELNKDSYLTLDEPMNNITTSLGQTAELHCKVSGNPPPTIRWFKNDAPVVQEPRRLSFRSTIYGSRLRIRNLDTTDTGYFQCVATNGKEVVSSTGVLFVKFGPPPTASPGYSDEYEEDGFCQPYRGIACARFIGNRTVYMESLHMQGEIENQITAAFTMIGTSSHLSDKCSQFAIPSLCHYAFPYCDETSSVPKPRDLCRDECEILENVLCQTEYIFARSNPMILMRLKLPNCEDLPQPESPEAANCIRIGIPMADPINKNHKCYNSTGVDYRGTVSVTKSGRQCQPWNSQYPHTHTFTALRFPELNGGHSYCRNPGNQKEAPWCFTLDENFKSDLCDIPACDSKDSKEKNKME

B1: ERR2-308 (mAb037) (antibody, human IgG1, V domains shown)
VH: QEQLEESGGRLVTPGTPLTLTCAVSGFSLSNYAMGWVRQAPGEGLEYIGWISAGGGAYYASWVNGRFTISKTSSTVDLKMTSLTAADTATYFCARGASNGCDLWGPGTLVTVSS
VL: DPMLTQTPSSVSAVVGGTVTIKCQASQSITSWLSWYQQKPGQPPKLLIYGASHLASGVPSRFKGSGYGTEFTLTISGIQREDAATYYCLGGYSNSDIVFGGGTELEIL
notes: Full-length chimeric rabbit/human IgG1, human IgH-gamma1 and IgL-kappa constant regions; C-terminal tags HC: LPETG-Strep, LC: G5SLPETG-Strep
Regarding B1, the IC50 in assay [1] was determined as 0.0167 µg/mL; in assay [2], 0.0336 µg/mL; in [3], 0.0186 µg/mL; in assay [4], 0.467 µg/mL; in assay [5], 0.0046 µg/mL. For the same molecule, the Kd in assay [6] amounted to 11.2 nM; in [7], 5.4 nM. Moreover, the koff stood at 0.000153 s⁻¹ in [6] and 0.000127 s⁻¹ in assay [7]. Further, the kon in assay [6] came to 13700 M⁻¹ s⁻¹; in assay [7], 23800 M⁻¹ s⁻¹. Also, the binding result in [8] is listed as “no binding (tested: 0.5 µg/mL highest concentration)”.

B2: ERR2-317 (mAb006) (antibody, human IgG1, V domains shown)
VH: QSLEESGGRLVTPGTPLTLTCTASGFSLSSYDMIWVRQAPGKGLEYIGIINAGGNTYYASWAKGRFTISRTSTTVDLKMTSPTTEDTATYFCARGSSWTGDIWGPGTLVTVSS
VL: DPVLTQTPSSTSAAVGGTVTIKCQASQSISSYLSWYQQKPGQPPKQLIYAASTLASGVPSRFKGSGSGTEYTLTISGVQREDAATYYCLGGYASASYQTAFGGGTKVEIK
notes: as for B1
As to B2, the IC50 in assay [1] was 0.0084 µg/mL; in [2], 0.0391 µg/mL; in [3], 0.0168 µg/mL; in [4] it was 1.35 µg/mL; in [5], 0.019 µg/mL. Also, in [8], the binding result is reported as “no binding (tested: 0.5 µg/mL highest concentration)”.

B3: ERR2-316 (mAb005) (antibody, human IgG1, V domains shown)
VH: QKQLVESGGRLVTPGGSLTLTCTVSGFSLSKYGVSWVRQAPGSGLEYIGTIGGSGTSYYASWAKSRSTITRNTNLNTVTLKMTSLTAADTATYFCARYFGWNTGFDIWGPGTLVTISS
VL: DPVMTQTPSSVSEPVGGTVTIKCQASQSISNALAWYQQKPGQPPKRLIYKASTPASGVPSRFKGSRSGTEYTLTISGVQREDAATYYCLGFSVVSNDGWAFGAGTNVEIK
notes: Full-length chimeric rabbit/human IgG1, human IgH-gamma1 and IgL-kappa constant regions; C-terminal tags HC: LPETG-Strep, LC: G5SLPETG-Strep; also called mAb0005
Regarding B3, the IC50 amounted to 0.0112 µg/mL in assay [1]; 0.04 µg/mL in [2]; 0.0407 µg/mL in [3]; 0.0299 µg/mL in assay [4]; 0.044 µg/mL in assay [5]. Moreover, the binding result in assay [8] is recorded as “no binding (tested: 0.5 µg/mL highest concentration)”.

B4: chimeric rabbit/human Fab XBR2-TOP72 (Fab, V domains shown)
VH: QEQLEESGGRLVTPGTPLTLTCTVSGIDLSSNAMSWVRQAPGKGLEYVGFINGGGGVHYASWARGRFTISKTSTTVDLKITSPTTEDTATYFCARAGTTYYTSFNLWGPGTLVTISS
VL: QFVLTQSPSASAALGSSAKLTCTLSSAHKTYTIAWYQQQQGEAPRLLMMLRTDGSYTKGTGVPDRFSGSSSGADRYLIISSVQADDAAGYYCGADYSGGYVFGGGTQLTVTG
With B4, the binding result was “no binding (tested: 100 ng/50 µL)” in the assay with hFc-hROR1, “no binding (tested: 100 ng/50 µL)” with BSA and “binds” in assay [9].

B5: XBR2-TOP72 (IgG) (antibody, V domains shown)
VH: QEQLEESGGRLVTPGTPLTLTCTVSGIDLSSNAMSWVRQAPGKGLEYVGFINGGGGVHYASWARGRFTISKTSTTVDLKITSPTTEDTATYFCARAGTTYYTSFNLWGPGTLVTISS
VL: QFVLTQSPSASAALGSSAKLTCTLSSAHKTYTIAWYQQQQGEAPRLLMMLRTDGSYTKGTGVPDRFSGSSSGADRYLIISSVQADDAAGYYCGADYSGGYVFGGGTQLTVTG
notes: also called chimeric rabbit/human IgG1 XBR2-TOP72
B5: the binding result in assay [10] is recorded as “binds”.

B6: IgG1 XBR2-433 (antibody, V domains shown)
VH: QSVKESEGGLFKPTDTLTLTCTVSGFSLSTYGVSWVRQAPGNGLEWIGAIGSSGSANYASWAKDRSTITRNTNLNTVTLKMTSLTAADTATYFCARDGYYSSGWGPYFNIWGPGTLVTISS
VL: SFVLTQPASVQVNLGQTVSLTCTADTLSRSYASWYQQKPGQAPVLLIYRDTSRPSGVPDRFSGSSSGNTATLTISGAQAGDEADYYCATSGGSGSNPQYVFGGGTQLTVTG
For B6, the “cells in quadrant Q2 (PE+ APC+)” value was 67% with Ig, 90.6% in assay [11] and 50.7% with Ig+Fr.

B7: ERR2-Top35 (mAb130) (antibody, V domains shown)
VH: QSVKESEGGLFKPMDTLTLTCTVSGFSLNTYGVSWVRQAPGNGLEWIGAVGSSGATNYASWAKSRSTITRNTNENTVTLKMTSLTAADTATYFCARDGYYSSGWGPYFSIWGPGTLVTVSS
VL: SFVLTQPASVQVNLGQTVSLTCTAETLRSSYASWYQQKPGQAPVLLIYRDTSRPSGVPDRFSGSSSGNTATLTISGAQAGDEADYYCATSDGSGSRYYVFGGGTQLTVTG
In the case of B7, the half-maximal inhibitory concentration (IC50) in assay [1] worked out at 0.0143 µg/mL; in [2] it was 0.0419 µg/mL; in [3], 0.0462 µg/mL; in assay [4], 0.0244 µg/mL; in assay [5] it was 0.0531 µg/mL; in assay [12] it was 0.0173 µg/mL.

B8: chimeric rabbit/human Fab XBR2-TOP9 (Fab, V domains shown)
VH: QSVEESRGRLVTPGTPLTLICTVSGIDLSSYNIQWVRQAPGKGLEYIGYINTDGSAYYASWAKGRFTISKTSTTVDLKITSPTTEDTATYFCARGGYASGFNLWGPGTLVTISS
VL: DVVMTQTPSSTSAAVGGTVTIKCQASQNIGPWLSWYQQKPGQPPKQLIYAASTLASGVPSRFKGSGSGTDYTLTISGVQREDAATYYCLGWHSWSDDGWAFGAGTNVEIK
In the case of B8, the values for the binding result (with hFc-hROR1; in the assay with BSA; in assay [9]) were “no binding (tested: 100 ng/50 µL)”, “no binding (tested: 100 ng/50 µL)” and “binds”, respectively.

B9: ERR2-302 (mAb004) (antibody, human IgG1, V domains shown)
VH: QKQLVESGGGLVKPGGSLTLTCTVSGFSLSSYAIGWVRQAPGNGLEWIGIINSYGSTYYASWAKSRSTITRNTNLNTVTLKMTSLTAADTATYFCARSPYGYVSAWGYHRLDLWGQGTLVTISS
VL: SYELTQLPSVSVSLGQTARITCGGASIGSKVVHWYQQKPGLAPGLLIYDDDERPSGVPDRFSGSNSGDTATLTISGAQAGDEAEYYCQLWDGSDVVFGGGTQLTVTG
notes: Full-length chimeric rabbit/human IgG1, human IgH-gamma1 and IgL-lambda constant regions; C-terminal tags HC: LPETG-Strep, LC: G5SLPETG-Strep
Turning to B9, the IC50 amounted to 0.0134 µg/mL in assay [1]; 0.0322 µg/mL in assay [2]; 0.0055 µg/mL in assay [3]; 0.102 µg/mL in assay [4]; 0.0071 µg/mL in assay [5]; 0.0606 µg/mL in assay [12]. Further, the Kd in [6] amounted to 52.4 nM; in assay [7], 48.6 nM. For the same molecule, the values for the koff in [6] and in [7] were 0.0056 s⁻¹ and 0.00527 s⁻¹, respectively. In addition, the kon came to 107000 M⁻¹ s⁻¹ in assay [6] and 108000 M⁻¹ s⁻¹ in [7].
